Reference: the RNAGym collection of RNA variant scans (doi:10.7554/elife.80360)

B1: Hairpin Ribozyme (parent)
chain: GUCCUCUUUCACGUGCGCGUGAAAGAGAGAAGUGAACCAGAGAAACACACGUUGUGGUAUAUUACCUGGUA

Variants of: B1
Experiment: self-cleavage, relative activity (ratio to wild type); higher = more cleavage; co-transcriptional
Variant GUCCUCUUUCACGUGCGCGUGAAAGAGAGACGUGAACCAGAGAAACGCACGUUGUGGUAUAUUACCUGGUA [A31C A47G] has a self-cleavage of 0.108.
With GCCCUCUUUCACGUGCGCGUGAAAGAGAGAAGUGAACCAGAGAAACACACGUUGGGGUAUAUUACCUGGUA [U2C U55G] the self-cleavage was 0.0647.
For GUCCUCUUUCACGUGCGGCUGAAAGAGAGAAGUGAACCAGAGAAACACACGUUGUGGUAUAUUACCUGGUA [C18G G19C], the self-cleavage was 0.804.
For GUCCUCUUUCUCGUGCGCGUGAAAGAGAGAAGUGAACCAGAGAAACACACGUUGUCGUAUAUUACCUGGUA [A11U G56C], the self-cleavage was 0.087.
With GUCCUCUUUCACGUGCGCGUGAAAGAGAUAAGUGAACCAGAGGAACACACGUUGUGGUAUAUUACCUGGUA [G29U A43G] the self-cleavage was 0.134.
GUCCUCUUUCACGUGCGCGUGAAAGAUAGAAGUGAACCAGAGAAACACACGUUGUUGUAUAUUACCUGGUA [G27U G56U] showed a self-cleavage of 0.108.
With GGCCUCUUUCACGUGCGCGUGAAAGAGAGAAGUGAACCAGAGAAACACACGUUGUGGCAUAUUACCUGGUA [U2G U58C] the self-cleavage was 0.384.
GUCCUCGUUCACGUGCGCGUGAAAGAGAGAAGUGAACCAGAGAAACACACGUUGUGGUAUAUUACAUGGUA [U7G C66A] showed a self-cleavage of 0.205.
Variant GUCCUCUUUCACGUGCGCGUGAAAGAGAGAAGUGAGCCAGAGAAACACACGUUGUGGUAUAAUACCUGGUA [A36G U62A] has a self-cleavage of 0.179.
GUCCUCUUUCACGUGCGCGUGAAAAAGAGAAGUGAACCAGAGAAACACACGCUGUGGUAUAUUACCUGGUA [G25A U52C] showed a self-cleavage of 0.7.
For GUCCUCUUUCACGUGCGCGUGAAAGAGAGCAGUGAAACAGAGAAACACACGUUGUGGUAUAUUACCUGGUA [A30C C37A], the self-cleavage was 0.0529.
In the case of GUCCUCUUUCACGUGCGCGUGCAAGAGAGAAGUGAACCAGAGAAACACACGUUGUCGUAUAUUACCUGGUA [A22C G56C], the self-cleavage is reported as 0.243.
With GUCCUCUUUCACGUGCGCGUGAAAGAGAGAAGUGAACCAGAGAAACACAUGUUGUGGUAUAUUACCUAGUA [C50U G68A] the self-cleavage was 0.194.
For GGCCUCUUUCACGUGCGCGUGAAAGAGAGAAGUGAACCAGAGAAACACACGUCGUGGUAUAUUACCUGGUA [U2G U53C], the self-cleavage was 0.575.
With GUCCUCUUUCACGAGCGCGUGAAAGAGAGAAGUGAACCAGAGAAACACACAUUGUGGUAUAUUACCUGGUA [U14A G51A] the self-cleavage was 0.957.
With CUCCUCUUUCACGUGCGCGUGAAAGAGAGAAGUGAACCAGAGAAACCCACGUUGUGGUAUAUUACCUGGUA [G1C A47C] the self-cleavage was 0.0859.
GUCCCCUUUCACGUGCGCGUGAAAGAUAGAAGUGAACCAGAGAAACACACGUUGUGGUAUAUUACCUGGUA [U5C G27U] showed a self-cleavage of 0.0794.
For GUCCUCUUUCACGUGAGCGUGAAAGAGAGAAGUGAACCAGAGAAACACACGUUGAGGUAUAUUACCUGGUA [C16A U55A], the self-cleavage was 0.221.
GUCCUCUUUCACGUGCGCGUGAAAGAGAGAAGUGAGCCAGAGAACCACACGUUGUGGUAUAUUACCUGGUA [A36G A45C] gave a self-cleavage of 0.189.
Variant GUCCUCUUUCACGUGCCCGUGAAAGAGAGAAGUGAACCAGAGAAACACACGUUGUGGUAUAUUACCUGGUU [G17C A71U] has a self-cleavage of 0.639.
For GUCCUCUCUCACGUGCGCGUGAAAGAGAGAAGUGAACCAGAGAAACACACGUUGUGGUAUAUUACCUUGUA [U8C G68U], the self-cleavage was 0.154.
With CUCCUCUUUCACGUGCGCGUGAAAGAGAGUAGUGAACCAGAGAAACACACGUUGUGGUAUAUUACCUGGUA [G1C A30U] the self-cleavage was 0.0862.
Work on GUCUUCUUUCACGUGCGCGUGAAAGAGGGAAGUGAACCAGAGAAACACACGUUGUGGUAUAUUACCUGGUA [C4U A28G] yielded a self-cleavage of 0.458.
With GUCCUCUUUCACGUGCGCGUGAAAGACAGAAGUGAACCAGAGAAACACACGUUGUGGUAUAUUACCAGGUA [G27C U67A] the self-cleavage was 0.104.
GUCCUCUUUCACGUGCGCGUGAAAGAGAGAAGUUAACCAGAGAAACACACUUUGUGGUAUAUUACCUGGUA [G34U G51U] showed a self-cleavage of 1.04.
GUCCUCUUUCACGUGUGCGUGAAAGAGAGAAGUCAACCAGAGAAACACACGUUGUGGUAUAUUACCUGGUA [C16U G34C] showed a self-cleavage of 1.53.
Variant GUCCUCUUUCACGUGCGCGUGAAAGCGAGAAGUGGACCAGAGAAACACACGUUGUGGUAUAUUACCUGGUA [A26C A35G] has a self-cleavage of 0.529.
For GUCCUCUUUCACGUGCGCGUGAAAGAGAGAAGUGUACCAGAGAAGCACACGUUGUGGUAUAUUACCUGGUA [A35U A45G], the self-cleavage was 0.0965.
GUCCUCUUUCACGUGCGCGUGAAAGAGAGUAGUGAACCAGAGAAACACACGUUGUGGUAUAUUACCCGGUA [A30U U67C] showed a self-cleavage of 0.0825.
With GUCCUCUUUCACGUGCGCGUGAAAGAGAGCAGUGAACCAGAGAAACACGCGUUGUGGUAUAUUACCUGGUA [A30C A49G] the self-cleavage was 0.123.
For GUCCUCUUUCACGUGCGCGUGAACGCGAGAAGUGAACCAGAGAAACACACGUUGUGGUAUAUUACCUGGUA [A24C A26C], the self-cleavage was 0.338.
GUCCUCUUUCACGUGCGCGUGAAAGAGAGAAGUGAACCGGAGAACCACACGUUGUGGUAUAUUACCUGGUA [A39G A45C] gave a self-cleavage of 0.122.
Work on GUCCUCUUUCACGUGCGGGUGAUAGAGAGAAGUGAACCAGAGAAACACACGUUGUGGUAUAUUACCUGGUA [C18G A23U] yielded a self-cleavage of 0.752.
In the case of GUCCUCUUGCACGUGCGCGUGAAAGAGAGAAGUGAACGAGAGAAACACACGUUGUGGUAUAUUACCUGGUA [U9G C38G], the self-cleavage is reported as 0.175.
In the case of GUCCUCUUACACGUGCGCGUGAAAGAGUGAAGUGAACCAGAGAAACACACGUUGUGGUAUAUUACCUGGUA [U9A A28U], the self-cleavage is reported as 0.441.
For GUCCUCUUUCACGUGCGCGUGAAAGAGAGAAGUGAACCAAAGAAACACACGUCGUGGUAUAUUACCUGGUA [G40A U53C], the self-cleavage was 0.46.
In the case of GUCCUCUUUCACGCGCGCGUGAAAGAGAGAAGUGAACCAGAGAAUCACACGUUGUGGUAUAUUACCUGGUA [U14C A45U], the self-cleavage is reported as 0.119.
With GUCCUCUUUCACGUGCGCGUGAUAGAGAGAAGUGAACCAGAGAAACACACGUUGUGGUAUAUUACCUGGCA [A23U U70C] the self-cleavage was 0.909.
